Test results: PMC7954794, “Protein context shapes the specificity of SH3 domain-mediated interactions in vivo” (Nature Communications, 2021)

Columns and labels:
[1] = test system: Hua2; test: Deep mutational scanning of Abp1 SH3, Abp1-Hua2 DHFR-PCA (DMS score); format: cell-based, Saccharomyces cerevisiae; settings: for hua2sc: Frequencies scaled to the synonymous mutation distribution (DMS score) / HUA2_MTX2: frequencies normalized to the reference condition / HUA2_MTX2 / hua2sc (DMS score): Abp1-Hua2 DHFR-PCA; for hua2sc: Frequencies scaled to the synonymous mutation distribution (DMS score) / HUA2_MTX2: frequencies normalized to the reference condition / HUA2_MTX2: MTX2; for HUA2_MTX2: frequencies normalized to the reference condition: single amino acid variants of Abp1 SH3; for quadrant (effect of mutation on Hua2 and Lsb3 interactions): classification from both Hua2 and Lsb3 DMS scores, Dest. both / Dest. Hua2 / Dest. Lsb3 / Neutral; for HUA2_MTX2: frequencies normalized to the reference condition, amino acid level; for hua2sc (DMS score): frequencies scaled to the synonymous mutation distribution
Experimental: (§1) Single site mutation libraries were generated by a PCR-based saturation mutagenesis method[50] as described below. The mutagenesis was carried out on the pUC19 plasmid containing the SH3 domain sequence of ABP1 flanked by its homology arms subsequently used in the CRISPR mediated genomic re-integration. We used oligos containing degenerate nucleotides (NNN) to carry out the mutagenesis at each codon of the domain sequence. In the first step of the two-step PCR procedure (short PCR step), an amplicon was generated with an oligo containing the degenerate codon which is positioned within the domain sequence, and another oligo lying outside Abp1 sequence in the plasmid. Short PCR step was carried out with the following settings: 5 min at 95 °C, 35 cycles: 20 s at 98 °C, 15 s at 60 °C, 30 s at 72 °C, and a final extension of 1 min at 72 °C. The amplicon generated in this step was used as a mega primer in the second step (long PCR step) to amplify the whole plasmid. Long PCR step was carried out with the following settings: 5 min at 95 °C, 22 cycles: 20 s at 98 °C, 15 s at 68 °C, 3 min 30 s at 72 °C, and a final extension of 5 min at 72 °C. The long PCR product was digested for 2 h at 37 °C with DpnI. The digestion product was then transformed into E. coli MC1061 competent cells. In order to obtain most of the 64 possible codons, we recovered ~1000 colonies from each plate to retrieve the plasmid single mutant libraries. Saturation mutagenesis was carried out in a codon-position-wise manner. Mutants at each position were stored separately. Library quality control was assessed by amplifying the purified plasmid DNA preparations by PCR followed by Illumina sequencing as described below. The genomic insertion of the mutant libraries (one library per amino acid position) was performed by targeting the stuffer sequence in the ABP1 SH3-deleted strain as described in the strain construction section. ABP1 SH3-deleted yeast competent cells were co-transformed with pCAS containing the stuffer-specific gRNA and PCR amplified ABP1 SH3 single position mutated libraries from the pUC19 preparations. As for the library generation, ~1000 colonies from each plate were retrieved. Glycerol stocks of yeast cells were kept for each position (58 different stocks corresponding to the 58 amino acid positions of Abp1 SH3). The stocks were also validated by Illumina sequencing (see below).
(§2) Liquid DHFR-PCA experiments were performed following the generation of the ABP1 SH3 single position mutated yeast strains and were performed in biological independent duplicates. An overnight culture was started in YPD + NAT by adding the same number of cells from each yeast mutant strain (master pool). Then, the master pool and Hua2-DHFR F[3] or Lsb3-DHFR F[3] preys strains were mixed in YPD (2:1) for mating and incubated for 8 h at 30 °C. Diploid cells were selected the first time by transferring the mixture in a YPD + NAT + HPH (OD 0.5) culture for 16 h at 30 °C. The next day, the first diploid selection was transferred in SC complete pH 6.0 + NAT + HPH at 0.5 OD and the culture was grown for 24 h at 30 °C. The validation of the yeast mutant libraries was done the next day with a fraction of the diploid cells (first DHFR-PCA experiment time point without PCA selection, reference condition S2) by amplifying ABP1 SH3 genomic sequence followed by Illumina sequencing as described in the section below. Following the selection, diploid cells OD was read using a TECAN Infinite F200 Pro, and dilutions to 0.1 OD in PCA selection media without agar in a 50 mL tube was done. Tubes were incubated at 30 °C for 72 h (second-time point of the DHFR-PCA experiment, first PCA selection). A fraction of the cells (5U OD) was collected for Illumina sequencing. The cells from the first PCA step were grown for a second PCA selection step using the same procedures. […]

[2] = test system: Lsb3; test: Deep mutational scanning of Abp1 SH3, Abp1-Lsb3 DHFR-PCA (DMS score); format: cell-based, Saccharomyces cerevisiae; settings: Abp1-Lsb3 DHFR-PCA; for lsb3sc: Frequencies scaled to the synonymous mutation distribution (DMS score) / LSB3_MTX2: frequencies normalized to the reference condition / LSB3_MTX2: MTX2; for LSB3_MTX2: frequencies normalized to the reference condition: single amino acid variants of Abp1 SH3; for LSB3_MTX2: frequencies normalized to the reference condition, amino acid level; for lsb3sc (DMS score): frequencies scaled to the synonymous mutation distribution
Experimental: as §1, §2

| Molecule | hua2sc: Frequencies scaled to the synonymous mutation distribution (DMS score) [1] | HUA2_MTX2: frequencies normalized to the reference condition [1] | quadrant (effect of mutation on Hua2 and Lsb3 interactions) [1] | lsb3sc: Frequencies scaled to the synonymous mutation distribution (DMS score) [2] | LSB3_MTX2: frequencies normalized to the reference condition [2] | HUA2_MTX2 [1] | hua2sc (DMS score) [1] | LSB3_MTX2 [2] | lsb3sc (DMS score) [2] |
| --- | --- | --- | --- | --- | --- | --- | --- | --- | --- |
| ABP1 S51S (protein, UniProt P15891 2-592, looked up, synonymous codon S51S) Actin-binding protein: ALEPIDYTTHSREIDAEYLKIVRGSDPDTTWLIISPNAKKEYEPESTGSSFHDFLQLFDETKVQYGLARVSPPGSDVEKIIIIGWCPDSAPLKTRASFAANFAAVANNLFKGYHVQVTARDEDDLDENELLMKISNAAGARYSIQTSSKQQGKASTPPVKKSFTPSKSPAPVSKKEPVKTPSPAPAAKISSRVNDNNDDDDWNEPELKERDFDQAPLKPNQSSYKPIGKIDLQKVIAEEKAKEDPRLVQKPTAAGSKIDPSSDIANLKNESKLKRDSEFNSFLGTTKPPSMTESSLKNDDDKVIKGFRNEKSPAQLWAERKAKQNSGNAETKAEAPKPEVPEDEPEGEPDVKDLKSKFEGLAASEKEEEEMENKFAPPPKKSEPTIISPKPFSKPQEPVKAEEAEQPKTDYKKIGNPLPGMHIEADNEEEPEENDDDWDDDEDEAAQPPLPSRNVASGAPVQKEEPEQEEIAPSLPSRNSIPAPKQEEAPEQAPEEEIEEEAEEAAPQLPSRSSAAPPPPPRRATPEKKPKENPWATAEYDYDAAEDNELTFVENDKIINIEFVDDDWWLGELEKDGSKGLFPSNYVSLGN | -0.02064 | 1.592 | Neutral | 0.05209 | 1.552 |  |  |  |  |
| ABP1 V20V (protein, UniProt P15891 2-592, looked up, synonymous V20V codon change in SH3) Actin-binding protein: ALEPIDYTTHSREIDAEYLKIVRGSDPDTTWLIISPNAKKEYEPESTGSSFHDFLQLFDETKVQYGLARVSPPGSDVEKIIIIGWCPDSAPLKTRASFAANFAAVANNLFKGYHVQVTARDEDDLDENELLMKISNAAGARYSIQTSSKQQGKASTPPVKKSFTPSKSPAPVSKKEPVKTPSPAPAAKISSRVNDNNDDDDWNEPELKERDFDQAPLKPNQSSYKPIGKIDLQKVIAEEKAKEDPRLVQKPTAAGSKIDPSSDIANLKNESKLKRDSEFNSFLGTTKPPSMTESSLKNDDDKVIKGFRNEKSPAQLWAERKAKQNSGNAETKAEAPKPEVPEDEPEGEPDVKDLKSKFEGLAASEKEEEEMENKFAPPPKKSEPTIISPKPFSKPQEPVKAEEAEQPKTDYKKIGNPLPGMHIEADNEEEPEENDDDWDDDEDEAAQPPLPSRNVASGAPVQKEEPEQEEIAPSLPSRNSIPAPKQEEAPEQAPEEEIEEEAEEAAPQLPSRSSAAPPPPPRRATPEKKPKENPWATAEYDYDAAEDNELTFVENDKIINIEFVDDDWWLGELEKDGSKGLFPSNYVSLGN |  |  |  |  |  | 1.042 | -0.571 | 1.496 | -0.004531 |
| ABP1 T18T (protein, UniProt P15891 2-592, looked up, synonymous codon change T18T) Actin-binding protein: ALEPIDYTTHSREIDAEYLKIVRGSDPDTTWLIISPNAKKEYEPESTGSSFHDFLQLFDETKVQYGLARVSPPGSDVEKIIIIGWCPDSAPLKTRASFAANFAAVANNLFKGYHVQVTARDEDDLDENELLMKISNAAGARYSIQTSSKQQGKASTPPVKKSFTPSKSPAPVSKKEPVKTPSPAPAAKISSRVNDNNDDDDWNEPELKERDFDQAPLKPNQSSYKPIGKIDLQKVIAEEKAKEDPRLVQKPTAAGSKIDPSSDIANLKNESKLKRDSEFNSFLGTTKPPSMTESSLKNDDDKVIKGFRNEKSPAQLWAERKAKQNSGNAETKAEAPKPEVPEDEPEGEPDVKDLKSKFEGLAASEKEEEEMENKFAPPPKKSEPTIISPKPFSKPQEPVKAEEAEQPKTDYKKIGNPLPGMHIEADNEEEPEENDDDWDDDEDEAAQPPLPSRNVASGAPVQKEEPEQEEIAPSLPSRNSIPAPKQEEAPEQAPEEEIEEEAEEAAPQLPSRSSAAPPPPPRRATPEKKPKENPWATAEYDYDAAEDNELTFVENDKIINIEFVDDDWWLGELEKDGSKGLFPSNYVSLGN |  |  |  |  |  | 1.603 | -0.009347 | 1.406 | -0.09387 |
| ABP1 F19F (protein, UniProt P15891 2-592, looked up, synonymous codon change F19F) Actin-binding protein: ALEPIDYTTHSREIDAEYLKIVRGSDPDTTWLIISPNAKKEYEPESTGSSFHDFLQLFDETKVQYGLARVSPPGSDVEKIIIIGWCPDSAPLKTRASFAANFAAVANNLFKGYHVQVTARDEDDLDENELLMKISNAAGARYSIQTSSKQQGKASTPPVKKSFTPSKSPAPVSKKEPVKTPSPAPAAKISSRVNDNNDDDDWNEPELKERDFDQAPLKPNQSSYKPIGKIDLQKVIAEEKAKEDPRLVQKPTAAGSKIDPSSDIANLKNESKLKRDSEFNSFLGTTKPPSMTESSLKNDDDKVIKGFRNEKSPAQLWAERKAKQNSGNAETKAEAPKPEVPEDEPEGEPDVKDLKSKFEGLAASEKEEEEMENKFAPPPKKSEPTIISPKPFSKPQEPVKAEEAEQPKTDYKKIGNPLPGMHIEADNEEEPEENDDDWDDDEDEAAQPPLPSRNVASGAPVQKEEPEQEEIAPSLPSRNSIPAPKQEEAPEQAPEEEIEEEAEEAAPQLPSRSSAAPPPPPRRATPEKKPKENPWATAEYDYDAAEDNELTFVENDKIINIEFVDDDWWLGELEKDGSKGLFPSNYVSLGN |  |  |  |  |  | 2.091 | 0.4783 | 1.966 | 0.4657 |
| ABP1 Y53Y (protein, UniProt P15891 2-592, looked up, synonymous codon change Y53Y) Actin-binding protein: ALEPIDYTTHSREIDAEYLKIVRGSDPDTTWLIISPNAKKEYEPESTGSSFHDFLQLFDETKVQYGLARVSPPGSDVEKIIIIGWCPDSAPLKTRASFAANFAAVANNLFKGYHVQVTARDEDDLDENELLMKISNAAGARYSIQTSSKQQGKASTPPVKKSFTPSKSPAPVSKKEPVKTPSPAPAAKISSRVNDNNDDDDWNEPELKERDFDQAPLKPNQSSYKPIGKIDLQKVIAEEKAKEDPRLVQKPTAAGSKIDPSSDIANLKNESKLKRDSEFNSFLGTTKPPSMTESSLKNDDDKVIKGFRNEKSPAQLWAERKAKQNSGNAETKAEAPKPEVPEDEPEGEPDVKDLKSKFEGLAASEKEEEEMENKFAPPPKKSEPTIISPKPFSKPQEPVKAEEAEQPKTDYKKIGNPLPGMHIEADNEEEPEENDDDWDDDEDEAAQPPLPSRNVASGAPVQKEEPEQEEIAPSLPSRNSIPAPKQEEAPEQAPEEEIEEEAEEAAPQLPSRSSAAPPPPPRRATPEKKPKENPWATAEYDYDAAEDNELTFVENDKIINIEFVDDDWWLGELEKDGSKGLFPSNYVSLGN | -0.26 | 1.353 | Neutral | -0.1658 | 1.335 |  |  |  |  |
